Results on 5 molecules are retold here after patent publication US20030073629A1, “Omi and domains thereof that disrupt IAP-caspase interaction” (priority 2001, published 2003).

The target in experiment [1] is T1, GST-BIR3 fusion protein (BIR3 domain of human XIAP) (Homo sapiens, UniProt P98170).
T1 construct: Omi associates directly with the BIR3 domain of XIAP
As to the kind of experiment: Interaction of purified recombinant proteins with GST-BIR3 fusion protein (SDS-PAGE, Coomassie). It is filed as binding. The settings on record: purified C-terminal His6-tagged recombinant protein; wild type GST-BIR3. The text has this: (§1) FIGS. 7A and 7B are scanned images of Coomassie stained gels representing SDS-PAGE analysis of purified C-terminal His6-tagged recombinant wild type mature Omi (WT), Omi-ΔAVPS, Omi-S306A, and mature Smac (7A) and recombinant Omi and Smac proteins with GST-BIR1, GST-BIR2, GST-BIR3, or GST-BIR3-E314S fusion proteins (7B).
(§2) To determine whether a recombinant Omi lacking the first 133 residues (mature Omi) can interact with the GST-BIR3 fusion protein, this protein was expressed with a C-terminal His6 tag in bacteria and purified to apparent homogeneity (see FIG. 7B). […] FIGS. 7A and 7B show scanned images of Coomassie stained gels representing SDS-PAGE analysis of purified C-terminal His6-tagged recombinant wild type mature Omi (WT), Omi-ΔAVPS, Omi-S306A, and mature Smac (FIG. 7A) and recombinant Omi and Smac proteins with GST-BIR1, 2, GST-BIR3 or GST-BIR3-E314S fusion proteins (FIG. 7B).

Experiment [2] deals with T2, caspase-9 interaction with XIAP (procaspase-3 activation) (Homo sapiens, UniProt P98170).
T2 construct: caspase-9: endogenous in 293T/HEK293 S100 extract
Description: Procaspase-3 activation in XIAP-containing S100 extracts stimulated with cytochrome c and dATP. Type of experiment: biochemical. The note with it: S100 extracts with purified XIAP, cytochrome c plus dATP; 10, 50 or 300 ng protein. How it is done: FIG. 17 is a scanned image of an autoradiogram, representing SDS-PAGE analysis of ^35S-labeled procaspase-3 following stimulation of 293T S100 extracts (20μg) mixed with purified XIAP (50 ng) with cytochrome c (0.5 μg) plus dATP (1 mM), in the presence of increasing amounts (10, 50, or 300 ng, respectively) of purified mature WT Omi, Omi-ΔAVPS, Omi-S306A, or mature Smac in 10 μl reaction volume. In the fifth lane, S100 extracts were incubated with. 300 ng of WT Omi without XIAP.
Next, it was determined whether Omi, like Smac, promotes caspase-9 activity in HEK293 S100 extracts in the presence of XIAP. To measure the caspase-9 activity in these extracts, ^35S-labeled procaspase-3 was added to the S100 extracts and stimulated the extracts with cytochrome c and dATP. […] These observations indicate that Omi, like Smac, is able to disrupt the interaction of caspase-9 with XIAP in the S100 extracts to promote procaspase-3 activation.

Experiment [3] deals with GST-BIR1, 2 fusion protein. Description: Interaction of purified recombinant proteins with GST-BIR1, 2 fusion protein. Type of experiment: binding, human. The note with it: purified C-terminal His6-tagged recombinant protein.
Source text: as §1, §2

Experiment [4] has as its target T3, endogenous XIAP (Homo sapiens, UniProt P98170).
T3 construct: endogenous in cells; host or cells: 293T cells
As to the kind of experiment: Co-immunoprecipitation with endogenous XIAP in transfected 293T cells. Type of experiment: cell-based. The note with it: 293T cells transfected with C-terminal Flag-tagged Omi precursors, XIAP western blot. The text has this:
FIG. 9 is a scanned image of a blot representing western blot analysis using an XIAP monoclonal antibody (upper panel) or Flag antibody (middle panel) of 293T cells transfected with constructs encoding C-terminal Flag-tagged Omi wild type or mutant precursors and immunoprecipitated with Flag antibody. The lower panel is a scanned image of a blot representing total extracts probed with the XIAP antibody. Arrows indicate IgG bands.

Experiment [5] addresses T4, cIAP2 (Homo sapiens, UniProt Q13489).
T4 construct: made in house; host or cells: in vitro translation (cell-free)
As to the kind of experiment: In vitro interaction of immobilized His6-tagged protein with 35S-labeled cIAP2. It is filed as binding. The settings on record: immobilized on Talon-affinity resin; in vitro-translated 35S-labeled cIAP2. How it is done: (§3) FIG. 8 is a scanned image of an autoradiogram representing SDS-PAGE analysis of interaction of XIAP, cIAP1, and cIAP2 with mature Omi and Smac. Immobilized C-terminal His6-tagged mature Omi or Smac, or GST protein was incubated with in vitro-translated ^35S-labeled XIAP (first panel), cIAP1 (second panel), or cIAP2 (third panel). The fourth panel is a scanned image of a Coomassie stained gel of the immobilized proteins.
(§4) C-terminal His6-tagged mature Omi or Smac, or a GST protein were immobilized onto Talon-affinity resin. The bound resins were incubated with in vitro-translated ^35S-labeled XIAP (first panel), cIAP1 (second panel) or cIAP2 (third panel), washed extensively, and then analyzed by SDS polyacrylamide gel electrophoresis and autoradiography. GST was used as a negative control (second lane of each panel). The fourth panel, represents a scanned image of a Coomassie stained gel of the immobilized proteins. […] The in vitro assays were performed as described in Srinivasula, S. M. et al., J Biol Chem 275:36152-36157, 2000.

In experiment [6] the target is T5, cIAP1 (Homo sapiens, UniProt Q13490).
T5 construct: made in house; host or cells: in vitro translation (cell-free)
Description: In vitro interaction of immobilized His6-tagged protein with 35S-labeled cIAP1. It is filed as binding. The note with it: immobilized on Talon-affinity resin; in vitro-translated 35S-labeled cIAP1. Here is the method:
as §3, §4

Experiment [7] deals with T6, GST-BIR3-E314S mutant (Homo sapiens, UniProt P98170, E314S).
T6 construct: Omi associates directly with the BIR3 domain of XIAP
Description: Interaction of purified recombinant proteins with GST-BIR3-E314S mutant. Type of experiment: binding. The settings on record: purified C-terminal His6-tagged recombinant protein.
Source text: as §1
To confirm that Omi associates directly with the BIR3 domain of XIAP but not with the Smac protein, Smac was depleted from the 293 extracts using a Smac monoclonal antibody. Specifically, 293 cellular extracts were either left untreated (undepleted lane of FIG. 4) or depleted with a Smac antibody (lane depleted of FIG. 4). The undepleted and depleted extracts were incubated with the GST-BIR3 protein and the bound proteins were eluted as above. The eluates were then analyzed by far-western blotting with ^35S-XIAP and by western blotting with the Smac antibody as described above (see FIG. 4, left and right panels, respectively). […] The last lane of each panel in FIG. 4 represents the 293 cellular extracts that were bound to the E314S mutant GST-BIR3 fusion protein. […] The asterisk in FIG. 4 indicates non-specific bands and the arrow indicates the IgG band. […]

Experiment [8] relates to MCF-7 cells. Description: TRAIL-induced apoptosis of MCF-7 cells transfected with GFP-IETD-Omi constructs. Type of experiment: cell-based. The note with it: TRAIL for 16 hours, 24 hours following transfection; versus GFP transfected control cells. Here is the method:
(§5) FIG. 20 provides schematic diagrams of the Omi-GFP and GFP-IETD-Omi constructs used to assay the ability of Omi to induce apoptosis or to enhance apoptosis by other stimuli.
FIG. 25 is a bar graphic representation of the percentages of the determined round apoptotic MCF-7 cells that were left untreated (−) or treated with TRAIL (+) for 16 hours 24 hours following transfection with the indicated expression constructs.
(§6) Next, the contribution of the IAP binding activity of Omi to its proapoptotic activity was tested. The MTS of Omi was replaced with a GFP-IETD sequence and mutated at its active site Ser306 to Ala (FIG. 20, GFP-IETD-AVP). Of note, the presence of the IETD sequence between GFP and Omi-S/A allowed caspase-dependent cleavage at the IETD site after the Asp residue and release of mature Omi-S/A in the cytosol of the transfected 293 and MCF-7 cells (FIG. 23). […] Taken together, Omi not only can induce apoptosis through its serine protease activity but also via its ability to bind and neutralize IAPs.

Experiment [9] addresses T7, XIAP-BIR3 (Homo sapiens, UniProt P98170).
T7 construct: Omi associates directly with the BIR3 domain of XIAP
As to the kind of experiment: GST-BIR3 precipitation of extracts of transfected 293T cells. Type of experiment: binding. The settings on record: 24 hours after transfection. How it is done:
FIG. 24 is a scanned image of an immunoblot with Flag-HRP antibody of 293T cells extracts precipitated with GST-BIR3 24 hours after transfection with the indicated expression constructs extracts.
as §6

For experiment [10], the system named is MCF-7 cells. As to the kind of experiment: Immunofluorescence confocal microscopy of Omi in MCF-7 cells. It is filed as cell-based. The settings on record: TRAIL 1 μg/ml; untreated cells mostly punctate and perinuclear.
The subject of experiment [11] is MCF-7 cells. As to the kind of experiment: Apoptosis of MCF-7 cells transfected with cytosolic Omi-GFP fusion proteins. Type of experiment: cell-based. The note with it: 36 hours following transfection. Here is the method: as §5
FIG. 21 is a bar graphic representation of the percentages of GFP-positive apoptotic MCF-7 cells 36 hours following transfection with M-Omi-S/A-GFP or pEGFP-N1 alone or M-Omi-GFP together with empty vector or expression construct encoding XIAP, XIAP-BIR3, or caspase-9DN. The cells were also transfected with M-Omi-GFP expression construct in the presence of zVAD-FMK (20 μM).

Positions count from the first letter of the chain named. In names and notes the source's numbering stands.

T7 sequence (P98170 238-358 limits assumed): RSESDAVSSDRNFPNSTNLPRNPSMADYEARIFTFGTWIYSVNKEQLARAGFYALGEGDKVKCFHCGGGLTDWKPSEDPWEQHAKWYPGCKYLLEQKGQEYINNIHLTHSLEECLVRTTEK
T6 sequence (P98170 238-358 E314S limits assumed): as the sequence (P98170 238-358 limits assumed) above, with E77S counted along it
T3 sequence (P98170 whole entry): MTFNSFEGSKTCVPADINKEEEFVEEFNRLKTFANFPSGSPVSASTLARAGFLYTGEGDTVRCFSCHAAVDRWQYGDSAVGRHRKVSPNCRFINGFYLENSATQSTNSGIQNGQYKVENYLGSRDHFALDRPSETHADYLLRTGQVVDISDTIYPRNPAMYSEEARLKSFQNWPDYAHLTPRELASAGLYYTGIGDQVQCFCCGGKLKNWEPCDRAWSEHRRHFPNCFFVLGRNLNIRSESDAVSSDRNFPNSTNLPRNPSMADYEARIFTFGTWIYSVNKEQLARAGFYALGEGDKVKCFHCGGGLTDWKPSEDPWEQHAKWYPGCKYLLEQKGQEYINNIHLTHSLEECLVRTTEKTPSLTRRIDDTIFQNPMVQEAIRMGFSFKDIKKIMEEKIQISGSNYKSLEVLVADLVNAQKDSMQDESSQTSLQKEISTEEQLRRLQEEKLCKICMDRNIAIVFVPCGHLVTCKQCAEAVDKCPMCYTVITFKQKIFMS
T2 sequence (P98170 whole entry): as above
T5 sequence (Q13490 whole entry, species assumed): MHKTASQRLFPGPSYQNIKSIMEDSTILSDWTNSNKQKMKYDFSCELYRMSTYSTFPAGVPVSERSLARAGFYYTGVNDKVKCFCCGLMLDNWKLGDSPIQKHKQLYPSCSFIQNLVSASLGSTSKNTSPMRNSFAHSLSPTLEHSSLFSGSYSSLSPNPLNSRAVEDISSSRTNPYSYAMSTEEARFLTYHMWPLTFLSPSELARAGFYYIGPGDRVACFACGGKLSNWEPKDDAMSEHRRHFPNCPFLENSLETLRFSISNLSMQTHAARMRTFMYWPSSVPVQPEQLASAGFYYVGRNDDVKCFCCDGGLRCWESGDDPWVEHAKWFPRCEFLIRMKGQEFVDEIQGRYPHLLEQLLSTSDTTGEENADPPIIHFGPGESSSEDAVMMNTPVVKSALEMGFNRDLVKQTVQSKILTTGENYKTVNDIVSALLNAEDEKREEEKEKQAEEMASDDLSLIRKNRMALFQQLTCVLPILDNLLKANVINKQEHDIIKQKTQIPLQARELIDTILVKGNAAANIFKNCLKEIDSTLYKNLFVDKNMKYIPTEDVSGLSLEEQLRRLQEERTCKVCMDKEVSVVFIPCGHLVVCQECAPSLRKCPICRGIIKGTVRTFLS
T1 sequence (P98170 238-358 limits assumed): as the sequence (P98170 238-358 limits assumed) above
Sequence of GST-BIR1, 2 fusion protein (P98170 124-240 limits assumed): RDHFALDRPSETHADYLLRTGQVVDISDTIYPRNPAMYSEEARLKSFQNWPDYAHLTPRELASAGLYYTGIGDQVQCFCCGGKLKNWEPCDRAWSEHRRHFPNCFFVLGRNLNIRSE
T4 sequence (Q13489 whole entry, species assumed): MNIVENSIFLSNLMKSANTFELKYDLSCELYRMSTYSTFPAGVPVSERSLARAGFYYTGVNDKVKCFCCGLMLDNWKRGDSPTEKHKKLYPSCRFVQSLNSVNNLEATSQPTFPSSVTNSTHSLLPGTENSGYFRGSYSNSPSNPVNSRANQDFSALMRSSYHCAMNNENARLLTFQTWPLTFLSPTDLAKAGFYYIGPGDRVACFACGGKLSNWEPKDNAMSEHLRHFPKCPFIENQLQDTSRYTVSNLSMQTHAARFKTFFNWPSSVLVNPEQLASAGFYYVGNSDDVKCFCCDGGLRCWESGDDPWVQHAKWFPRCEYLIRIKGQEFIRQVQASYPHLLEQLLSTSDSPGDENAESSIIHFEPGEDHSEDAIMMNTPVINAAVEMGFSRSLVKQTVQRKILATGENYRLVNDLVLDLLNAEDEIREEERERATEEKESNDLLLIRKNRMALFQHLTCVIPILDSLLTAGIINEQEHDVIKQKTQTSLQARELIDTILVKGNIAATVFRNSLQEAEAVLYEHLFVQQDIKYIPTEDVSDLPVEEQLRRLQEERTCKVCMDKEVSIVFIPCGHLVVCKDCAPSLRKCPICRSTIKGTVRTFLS

B1: mature Omi: Omi polypeptide comprising residues 134-458 of SEQ ID NO:1; recombinant with C-terminal His6 tag (protein, listed as Homo sapiens)
chain: AVPSPPPASPRSQYNFIADVVEKTAPAVVYIEILDRHPFLGREVPISNGSGFVVAADGLIVTNAHVVADRRRVRVRLLSGDTYEAVVTAVDPVADIATLRIQTKEPLPTLPLGRSADVRQGEFVVAMGSPFALQNTITSGIVSSAQRPARDLGLPQTNVEYIQTDAAIDFGNSGGPLVNLDGEVIGVNTMKVTAGISFAIPSDRLREFLHRGEKKNSSSGISGSQRRYIGVMMLTLSPSILAELQLREPSFPDVQHGVLIHKVILGSPAHRAGLRPGDVILAIGEQMVQNAEDVYEAVRTQSQLAVQIRRGRETLTLYVTPEVTE
modifications: C-terminal His6 tag
With B1, the “interaction with GST-BIR3 fusion protein” value in experiment [1] is recorded as “able to interact equally with the wild type GST-BIR3 protein”. Further, the “promotion of procaspase-3 activation” value in [2] is on record as “able to promote procaspase-3 activation in the XIAP-containing S100 extracts almost to the same extent as Smac”. The “interaction with GST-BIR1, 2 fusion protein” value in experiment [3] is reported as “able to interact with the GST-BIR1, 2 fusion protein”. Further, the “interaction with endogenous XIAP in vivo” value in experiment [4] is “can also interact with endogenous XIAP in vivo”. Further, the “interaction with cIAP2” value in [5] is “found to also interact with cIAP1 and cIAP2”. In [6], the “interaction with cIAP1” value is reported as “found to also interact with cIAP1”. For the same molecule, the “interaction with GST-BIR3-E314S mutant” value in [7] is listed as “not with the GST-BIR3-E314S mutant”.

B2: GFP-IETD-SSA: GFP-IETD-Omi-S/A with the AVPS motif mutated to SSAS motif (protein)
chain: B1 chain with A1S, V2S, P3A, S173A
For the molecule B2, the “enhancement of TRAIL-induced apoptosis” value in experiment [8] is on record as “abolished the apoptotic enhancement activity”. In [9], the “binding to XIAP-BIR3 (GST-BIR3)” value is “abolished the apoptotic enhancement activity of Omi-S/A and the ability to bind to BIR3”.

B3: GFP-IETD-AVP: Omi with MTS replaced by a GFP-IETD sequence and active site Ser306 mutated to Ala (protein)
chain: B1 chain with S173A
Consider B3, for which the “enhancement of TRAIL-induced apoptosis” value in experiment [8] is “enhanced TRAIL-induced apoptosis in these cells several folds above the GFP transfected control cells”.

B4: TRAIL: apoptotic stimulus acting by TRAIL-receptor ligation (protein, UniProt P50591 1-281, looked up)
Tumor necrosis factor ligand …: MAMMEVQGGPSLGQTCVLIVIFTVLLQSLCVAVTYVYFTNELKQMQDKYSKSGIACFLKEDDSYWDPNDEESMNSPCWQVKWQLRQLVRKMILRTSEETISTVQEKQQNISPLVRERGPQRVAAHITGTRGRSNTLSSPNSKNEKALGRKINSWESSRSGHSFLSNLHLRNGELVIHEKGFYYIYSQTYFRFQEEIKENTKNDKQMVQYIYKYTSYPDPILLMKSARNSCWSKDAEYGLYSIYQGGIFELKENDRIFVSVTNEHLIDMDHEASFFGAFLVG
For the molecule B4, the “immunofluorescence staining pattern of Omi” value in experiment [10] was “showed diffused immunofluorescence staining of Omi”.

B5: M-Omi-S/A-GFP: inactive (S306A) Omi-GFP fusion protein without the MTS (protein)
chain: MAVPSPPPASPRSQYNFIADVVEKTAPAVVYIEILDRHPFLGREVPISNGSGFVVAADGLIVTNAHVVADRRRVRVRLLSGDTYEAVVTAVDPVADIATLRIQTKEPLPTLPLGRSADVRQGEFVVAMGSPFALQNTITSGIVSSAQRPARDLGLPQTNVEYIQTDAAIDFGNAGGPLVNLDGEVIGVNTMKVTAGISFAIPSDRLREFLHRGEKKNSSSGISGSQRRYIGVMMLTLSPSILAELQLREPSFPDVQHGVLIHKVILGSPAHRAGLRPGDVILAIGEQMVQNAEDVYEAVRTQSQLAVQIRRGRETLTLYVTPEVTE
modifications: left off: large carriers
Turning to B5, the “binding to XIAP-BIR3 (GST-BIR3)” value in experiment [9] is on record as “do not bind XIAP-BIR3”. For the same molecule, in experiment [11], the “induction of apoptosis in MCF-7 cells” value is “not the inactive M-Omi-S/A-GFP, was able to induce apoptosis”.
